Measurements from paper PMC6276866 (Circulation, 2018).

B1: recombinant B56α protein (natural protein)
chain: not shown
B2: purified recombinant mutant AnkB (p.Q1283H) (SPR) (natural protein)
chain: MMNEDAAQKSDSGEKFNGSSQRRKRPKKSDSNASFLRAARAGNLDKVVEYLKGGIDINTCNQNGLNALHLAAKEGHVGLVQELLGRGSSVDSATKKGNTALHIASLAGQAEVVKVLVKEGANINAQSQNGFTPLYMAAQENHIDVVKYLLENGANQSTATEDGFTPLAVALQQGHNQAVAILLENDTKGKVRLPALHIAARKDDTKSAALLLQNDHNADVQSKMMVNRTTESGFTPLHIAAHYGNVNVATLLLNRGAAVDFTARNGITPLHVASKRGNTNMVKLLLDRGGQIDAKTRDGLTPLHCAARSGHDQVVELLLERGAPLLARTKNGLSPLHMAAQGDHVECVKHLLQHKAPVDDVTLDYLTALHVAAHCGHYRVTKLLLDKRANPNARALNGFTPLHIACKKNRIKVMELLVKYGASIQAITESGLTPIHVAAFMGHLNIVLLLLQNGASPDVTNIRGETALHMAARAGQVEVVRCLLRNGALVDARAREEQTPLHIASRLGKTEIVQLLLQHMAHPDAATTNGYTPLHISAREGQVDVASVLLEAGAAHSLATKKGFTPLHVAAKYGSLDVAKLLLQRRAAADSAGKNGLTPLHVAAHYDNQKVALLLLEKGASPHATAKNGYTPLHIAAKKNQMQIASTLLNYGAETNIVTKQGVTPLHLASQEGHTDMVTLLLDKGANIHMSTKSGLTSLHLAAQEDKVNVADILTKHGADQDAHTKLGYTPLIVACHYGNVKMVNFLLKQGANVNAKTKNGYTPLHQAAQQGHTHIINVLLQHGAKPNATTANGNTALAIAKRLGYISVVDTLKVVTEEVTTTTTTITEKHKLNVPETMTEVLDVSDEEGDDTMTGDGGEYLRPEDLKELGDDSLPSSQFLDGMNYLRYSLEGGRSDSLRSFSSDRSHTLSHASYLRDSAVMDDSVVIPSHQVSTLAKEAERNSYRLSWGTENLDNVALSSSPIHSGFLVSFMVDARGGAMRGCRHNGLRIIIPPRKCTAPTRVTCRLVKRHRLATMPPMVEGEGLASRLIEVGPSGAQFLGPVIVEIPHFAALRGKERELVVLRSENGDSWKEHFCDYTEDELNEILNGMDEVLDSPEDLEKKRICRIITRDFPQYFAVVSRIKQDSNLIGPEGGVLSSTVVPQVQAVFPEGALTKRIRVGLQAQPMHSELVKKILGNKATFSPIVTLEPRRRKFHKPITMTIPVPKASSDVMLNGFGGDAPTLRLLCSITGGTTPAQWEDITGTTPLTFVNECVSFTTNVSARFWLIDCRQIQESVTFASHVYREIICVPYMAKFVVFAKSHDPIEARLRCFCMTDDKVDKTLEQQENFAEVARSRDVEVLEGKPIYVDCFGNLVPLTKSGQHHIFSFFAFKENRLPLFVKVRDTTQEPCGRLSFMKEPKSTRGLVHQAICNLNITLPIYTKESESDQEQEEEIDMTSEKNPQDEQERIEERLAYIADHLGFSWTELARELDFTEEQIHQIRIENPNSLQDQSHALLKYWLERDGKHATDTNLVECLTKINRMDIVHLMETNTEPLQERISHSYAEIEQTITLDHSEGFSVLQEELCTAQHKQKEEQAVSKESETCDHPPIVSEEDISVGYSTFQDGVPKTEGDSSATALFPQTHKEQVQQDFSGKMQDLPEESSLEYQQEYFVTTPGTETSETQKAMIVPSSPSKTPEEVSTPAEEEKLYLQTPTSSERGGSPIIQEPEEPSEHREESSPRKTSLVIVESADNQPETCERLDEDAAFEKGDDMPEIPPETVTEEEYIDEHGHTVVKKVTRKIIRRYVSSEGTEKEEIMVQGMPQEPVNIEEGDGYSKVIKRVVLKSDTEQSEDNNE

How the values were obtained:
[1] = molecular target: purified recombinant AnkB, wild type (SPR) (UniProt Q01484-2 1-1872); experiment: SPR
recombinant B56α protein = molecular target: B1; experiment: SPR
recombinant B56α protein, sequence (Q15172 whole entry): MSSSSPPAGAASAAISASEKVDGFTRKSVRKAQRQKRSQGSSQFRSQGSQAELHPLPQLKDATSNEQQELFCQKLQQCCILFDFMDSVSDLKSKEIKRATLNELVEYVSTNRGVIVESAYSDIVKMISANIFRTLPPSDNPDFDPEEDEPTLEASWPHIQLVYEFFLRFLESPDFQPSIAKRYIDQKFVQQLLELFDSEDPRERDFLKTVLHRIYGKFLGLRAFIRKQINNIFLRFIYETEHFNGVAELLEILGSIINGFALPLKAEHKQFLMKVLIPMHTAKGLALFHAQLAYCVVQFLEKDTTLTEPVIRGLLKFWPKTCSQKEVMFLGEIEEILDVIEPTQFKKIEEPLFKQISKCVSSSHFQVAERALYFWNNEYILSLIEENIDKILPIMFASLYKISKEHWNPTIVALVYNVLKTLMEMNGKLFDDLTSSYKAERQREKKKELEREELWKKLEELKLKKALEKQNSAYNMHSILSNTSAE

Binder	Kd [1]	Kd (recombinant B56α protein)
B1	1.64 ± 0.05 µM	
B2		22.2 ± 6.42 µM
